# According to the DeepSol protein solubility set:
# Experiment: soluble on expression in E. coli; label from the status in PepcDB or PDB records
row,Sequence,soluble on expression in E. coli
1,ALSAKLTLDKVDLKGKRVIMRVDFNVPMKNNQITNNQRIKAAIPSIKHCLDNGAKSVVLMSHLGRPDGIPMPDKYSLEPVADELKSLLNKDVIFLKDCVGPEVEQACANPDNGSIILLENLRFHVEEEGKGKDSSGKKISADPAKVEAFRASLSKLGDVYVNDAFGTAHRAHSSMVGVNLPQKASGFLMKKELDYFSKALEKPERPFLAILGGAKVKDKIQLIKNMLDKVNFMIIGGGMAYTFLKELKNMQIGASLFDEEGATIVKEIMEKAEKNGVKIVFPVDFVTGDKFDENAKVGQATIESGIPSGWMGLDCGPESIKINAQIVAQAKLIVWNGPIGVFEWDAFAKGTKALMDEVVKATSNGCVTIIGGGDTATCCAKWGTEDKVSHVSTGGGASLELLEGKILPGVEALSNM,soluble
2,GSLYNDGNRDQRNFGRNQRNNNSNRYRNSRFNSRPRTRSREDDDEVHFDKTTFSKLIHVPKEDNSKEVTLDSLLEEGVLDKEIHKAITRMEFPGLTPVQQKTIKPILSSEDHDVIARAKTGTGKTFAFLIPIFQHLINTKFDSQYMVKAVIVAPTRDLALQIEAEVKKIHDMNYGLKKYACVSLVGGTDFRAAMNKMNKLRPNIVIATPGRLIDVLEKYSNKFFRFVDYKVLDEADRLLEIGFRDDLETISGILNEKNSKSADNIKTLLFSATLDDKVQKLANNIMNKKECLFLDTVDKNEPEAHERIDQSVVISEKFANSIFAAVEHIKKQIKERDSNYKAIIFAPTVKFTSFLCSILKNEFKKDLPILEFHGKITQNKRTSLVKRFKKDESGILVCTDVGARGMDFPNVHEVLQIGVPSELANYIHRIGRTARSGKEGSSVLFICKDELPFVRELEDAKNIVIAKQEKYEPSEEIKSEVLEAVTEEPEDISDIVISLISSYRSCIKEYRFSERRILPEIASTYGVLLNDPQLKIPVSRRFLDKLGLSRSPIGKAMFEIRDY,soluble
3,LKVGFFKRNLKEKIEAGRGVPNGIPAEDSEQLASGQEAGDPGCLKPLHEKDSESGGGKDG,soluble
4,PAWWGERAHPISEGGRGSAWFVEASFGNAVLRQYRRGGMIAMLNRDRYFWCGGHRTRSVLEFRLMRELISRGLPVPTPLAACYVRHGVQYRAAILMERLEGVSSLAMCVRGNSKEIHWEQIGRMISRFHREGLDHADLNAHNILLDQAGQCWLIDFDRGALRIPATKWREHNLARLLRSLLKIRGERSVDAVYRDFERLCRAY,not soluble
5,MKVIINGKEFDIPKGVRFGELSHEIEKAGIEFGCTDGQCGVCVARVIKGMECLNEPSEEEEETLWRVGAVDEDQRLTCQLVIEKEDCDEIVIESED,not soluble
6,MGSDKIHHHHHHMPPRASERSQLRGDENFVHAAHHELYNATQRRNLTKATTTIRTKRLNVTAEMPDWEAVREAGSGIKRDVGQRLDELLVQFEEAVTARGGHVHWARDAKEAGDIVTKLVEETGEKNVVKIKSMATMEIDLNNRLREAGISARETDLAELIVQLGKDKPSHILVPAIHRNRAEIRDIFIREMPNTDDSLSSEPAELAEASRSFLREQFMKAKVAISGANFGIAETGTVTIMESEGNGRMCLTLPETLISVMGIEKIIPTFQDLEVFLQLLPRSSTGERQAPYVSTWSGVTEGDGPKNFHIVLVDNGRTAVLSDEIGREALKCIRCSACLNVCPVYERAGGHAYGSTYPGPIGAILSPQMTGIKNKHDPNAYLPYASSLCGRCNEVCPVKIPFTDILLELRHKKIQTDAPKIEKAMMGAMQLAWGNSTMWNMITRMVFMGRIMGGSNGKITHLPSFLAGWTDVRDTAVPPKKSFRQWFETEEAQQLLADARRDGIHPNNPEVNQKKEN,not soluble
7,MAAKPVLYYFNGRGKMESIRWLLAAAGVEFEEVFLETREQYEKLLQSGILMFQQVPMVEIDGMKLVQTRAILNYIAGKYNLYGKDLKERALIDMYVGGTDDLMGFLLSFPFLSAEDKVKQCAFVVEKATSRYFPAYEKVLKDHGQDFLVGNRLSWADIHLLEAILMVEEKKSDALSGFPLLQAFKKRISSIPTIKKFLAPGSKRKPISDDKYVETVRRVLRMYYDVKPH,soluble
8,MSLKKNFALEKKKELQEMTNSAVRRVLDFKKDPNKVIELLNFMARSPQYSFKNQMMVSSQYENSNFTMGSRQFKETMGLKVNENATPIKIVAPVMNTFFKRNDKLVQLRFANKEEKEKIKNKEIKTIQNVWYYKLVDVYDITQTNAKPEDFPEYYPDRRYNFYVKNTEVIDDIISANKKLLKDNNIHLIENHTYNQLGTSVGFAGKNLTGDKIVGYRDGLNKTEILHTLLHETTHAFYHQKENPEKTTELKEFEAEMTAYIVAKRFGVDTSEHTIKYVSDWTESMSKIEDIEQSIKTVSMYSSRIINDIEKQIDPVKIKEGHHHHHH,not soluble
9,MNQNDNRIFRKEDLDWKELETIGIHKEELEKSGDMELLLQGEETETVPLKIRTSALRLTMDATLRITVGTDGKPVMEINGISPEAESEAGG,not soluble
10,GSKESPLHGTQNTINKRTQPTFGFTVNWKFSESTTVFTGQCFIDRNGKEVLKTMWLLRSSVNDIGDDWKATRVGIMIFTRLRTQKEGGSGGSARKCSLTGKWTNDLGSNMTIGAVNSRGEFTGTYITAVT,soluble
11,MSLKICVIGSSGHFRYALEGLDEECSITGIAPGVPEEDLSKLEKAISEMNIKPKKYNNWWEMLEKEKPDILVINTVFSLNGKILLEALERKIHAFVEKPIATTFEDLEKIRSVYQKVRNEVFFTAMFGIRYRPHFLTAKKLVSEGAVGEIRLVNTQKSYKLGQRPDFYKKRETYGGTIPWVGIHAIDWIHWITGKKFLSVYATHSRLHNSGHGELETTALCHFTLENEVFASLSIDYLRPQGAPTHDDDRMRIVGTRGIVEVINERVFLTDEKGHREVPLVEKGQIFEDFLREIRGQGKCMVTPEDSILTTEIALKARLSADTGQIVLIEGHHHHHH,soluble
12,GSDSSLFETYNVELVRKDGQSLGIRIVGYVGTSHTGEASGIYVKSVIPGSAAYHNGHIQVNDKIVAVDGVNIQGFANHDVVEVLRNAGQVVHLTLVRRKTSSSTSPLEPPSDRGTV,soluble
13,VSFNANEVTHVDTPQEALAASLNKFGEVNLEYMENLSETGRQELLTQLENRIFYNPMMKNYEIKDRFIAGNVVAKVEWIENYLKDYPDDDASKKSLEALQKAIPEPISFELLDFNLGERWIPVSVYEEFAGYLFEAKAHIHYTESIDEFSVSFEETNANITDRYYVKGEKRGYYGNDLLKHALHNTVPDITKTVQDEEGNDIKVRDAEAIQLADAKINEIRSAFTGWLNEQLPEFKQHLADMYNRKFNCYVRPDYDGSLQSF,soluble
14,MADILLLDNVDSFTYNLVDQLRASGHQVVIYRNQIGAEVIIERLQHMEQPVLMLSPGPGTPSEAGCMPELLQRLRGQLPIIGICLGHQAIVEAYGGQVGQAGEILHGKASAIAHDGEGMFAGMANPLPVARYHSLVGSNIPADLTVNARFGEMVMAVRDDRRRVCGFQFHPESILTTHGARLLEQTLAWALAK,soluble
15,MRERTEARRRRIEEVLRRRQPDLTVLLENVHKPHNLSAILRTCDAVGVLEAHAVNPTGGVPTFNETSGGSHKWVYLRVHPDLHEAFRFLKERGFTVYATALREDARDFREVDYTKPTAVLFGAEKWGVSEEALALADGAIKIPMLGMVQSLNVSVAAAVILFEAQRQRLKAGLYDRPRLDPELYQKVLADWLRK,soluble
16,SGEIKVSPDYNWFRGTVPLKKIIVDDDDSKIWSLYDAGPRSIRCPLIFLPPVSGTADVFFRQILALTGWGYRVIALQYPVYWDHLEFCDGFRKLLDHLQLDKVHLFGASLGGFLAQKFAEYTHKSPRVHSLILCNSFSDTSIFNQTWTANSFWLMPAFMLKKIVLGNFSSGPVDPMMADAIDFMVDRLESLGQSELASRLTLNCQNSYVEPHKIRDIPVTIMDVFDQSALSTEAKEEMYKLYPNARRAHLKTGGNFPYLCRSAEVNLYVQIHLLQFHGTKYAAIDPSMVSAEELEVQKGSLGISQEEQ,soluble
17,MERIDSHVSPRYAQIPTFMRLPHDPQPRGYDVVVIGAPYDGGTSYRPGARFGPQAIRSESGLIHGVGIDRGPGTFDLINCVDAGDINLTPFDMNIAIDTAQSHLSGLLKANAAFLMIGGDHSLTVAALRAVAEQHGPLAVVHLDAHSDTNPAFYGGRYHHGTPFRHGIDEKLIDPAAMVQIGIRGHNPKPDSLDYARGHGVRVVTADEFGELGVGGTADLIREKVGQRPVYVSVDIDVVDPAFAPGTGTPAPGGLLSREVLALLRCVGDLKPVGFDVMEVSPLYDHGGITSILATEIGAELLYQYARAHRTQL,soluble
18,MAHHHHHHMVLRPRPLKHSLLRRGRINPAATHREVSLPILLTLVTCPIPRPMQVDRSLWAEGPLQAQHPHSPTHLSRQQVECMLLAGVPPRAFRLQDKPSKVSETAKEAPQGDEEGEPRAQHEADHTTKGGGDDFLDKNGNEKREPPAGSQTAPLPDGGKNAHYYFFLLLPARPATRCHLSADEVVEQRQKFSAMKQLPLGELSVTEVLLNAQPLAHSQGAWTS,not soluble
19,MSVVGEERKRTILEKVEFKGKVKVSELAREFAVSTETIRRYLEELDREKKLKKVYGGAVQLPGAGVEAPMLEREMLHIEEKKRIGYKAATFVEDGDVIAIDDGSTPLQMVPYLVHRKNLTIVTSSFPVATQLISSINKKMFHGEVLFIGGKVSPKHSRVSGSISQQVIQQFHFHKAFVSIDGLLPSFGVSSFELEKAKLSEAMMKLAEKTYILCDHTKVGVKGNYRIAAISRIQHVICDKKMPYSFEEELMKHNIQWTVCLEHHHHHH,soluble
20,MAHHHHHHMSRTLTTTQPSVASSPASSSSGSTHQRPSADQLAETVHQMDEENALEFVSIDATSRDQVFHFLHDHPDATAVVNAVGLLTRNYEDARQVNGDVMTNIAAGVFHPKLAQSVQKVVYVSAEPYNLYSRRILGSKHLLKGYFHGKRIGEKAVLENLGNKGVVLRPSFIYGTRHVLVASAMNPDAVSTLSLPLGWIGLPLDKLLTAIGGGKLLMPPVCVDVVAEAAVRACAWANQPGKDIHGICDVYRMRDICNAVDPSLHEDRNGTVTASTASKEASTVKNDR,not soluble
21,GPGSMRRVVITGLGLVSPLAGDVEYSWKRLLEGKSGVRRITEFDVSDLSCQIAARIPVGDGTNGTYNADLHMESKEQRKVDAFIVYAIAAADQALADAEWFPKSDEDQICTGVLIGSGIGGIEGIVEAGYTLRDKGPRRISPFFIPGRLINLASGYVSIKYGLRGPNHSVVTACSTGAHAIGDAARLIALGDADVMLAGGTESPINRISLAGFSACRALSTCRNDDPERASRPYDVDRDGFVMGEGAAIVVLEELEHAKKRGARIYAEIIGYGLSGDAYHITAPSESGEGAQRSMMAALKRAQVNVSELDYINAHGTSTMADVIELAAVERVLGYYAPQVSMSSTKSSIGHLLGAAGAAEAIFCVLAIRDNIAPATLNLENPSIETKIDLVPHKPRERKIDTVLSNSFGFGGTNASLVMRRFSE,soluble
22,MGSDKIHHHHHHMPGAYAHLTMVNLVKEPDRLEKQGFPPEAIVSILDYFRFCELGAVSPDYPYLDIAHSSAGQWADRMHYQRTGDMIKAGVEWIRRLDGASRQKAFSWLLGYTSHVVTDTTIHPVIELKVGEYQKNKDKHRICEMHQDAYIFQRLNLGEIGLAEHLDSGIWSCCDKPGSGKLDSVITRTWQSMLETCYAGACQTDPPLIDNWHGAFKFVVDKAEEGHALPPFARHVAANLGLTYPAVADLDPQYLESLATPLEAMSYDAIFDRALENVLATGSLIAKAVFQNDNSYATALVNCNLDTGKDDQGNHIYWKKGVS,not soluble
23,MTARIYKPAKNAMQSGTAKTREWQLDYEPETPRTIEPLMGWTSSSDMQQQVSLRFHTRDEAVAYCEREGIPYQLIEPKEPVRRRAAYADNFAFRRPEPWTHLEHHHHHH,not soluble
